Experimental data taken from paper PMC9800336, “Exploration of the cysteine reactivity of human inducible Hsp70 and cognate Hsc70” (The Journal of Biological Chemistry, 2022).
Ends that are not written are not given here. * marks the point of attachment. FITC = O=C1OC2(c3ccc(O)cc3Oc3cc(O)ccc32)c2ccc(NC(=S)*)cc21

Key:
Conditions in all cases: both partners purified
WT hHsp70 (human HspA1A) = biological target: T1, WT hHsp70 (human HspA1A) (human, UniProt P0DMV8 1-641); test: fluorescence polarisation; kinetic; 20 nM FAR mixed with 10 μM hHsp70 in the presence of 1 mM ADP, RT, FP recorded against time; diamide or diamide with GSH added at 60 min, DTT at 120 min
T1 construct: human HspA1A (hHsp70), UniProtKB P0DMV8, full length; also called HspA1A/B; human inducible Hsp70

[1] = biological target: T2, hHsp70-C17/C574/C603 (hHsp70 C267S/C306S), untreated control (human, UniProt P0DMV8 1-641, C267S | C306S); test: fluorescence polarisation; steady state; increasing concentrations of Hsp70 with 20 nM FAR peptide, 60-min incubation, RT, buffer B (50 mM Tris-HCl pH 7.5, 100 mM KCl, 5 mM MgCl2); single site-binding model
T2 construct: human HspA1A (hHsp70), UniProtKB P0DMV8, full length with C267S/C306S; also called unmodified form

[2] = biological target: T3, disulfide-bonded hHsp70-C17/C574/C603 (human, UniProt P0DMV8 1-641, C267S | C306S, intramolecular disulfide bond between Cys574 and Cys603); test: as above
T3 construct: human HspA1A (hHsp70), UniProtKB P0DMV8, full length with C267S/C306S; also called -S-S-; disulfide-bonded form of full length hHsp70

Measured: binding result

T1 sequence (P0DMV8 whole entry): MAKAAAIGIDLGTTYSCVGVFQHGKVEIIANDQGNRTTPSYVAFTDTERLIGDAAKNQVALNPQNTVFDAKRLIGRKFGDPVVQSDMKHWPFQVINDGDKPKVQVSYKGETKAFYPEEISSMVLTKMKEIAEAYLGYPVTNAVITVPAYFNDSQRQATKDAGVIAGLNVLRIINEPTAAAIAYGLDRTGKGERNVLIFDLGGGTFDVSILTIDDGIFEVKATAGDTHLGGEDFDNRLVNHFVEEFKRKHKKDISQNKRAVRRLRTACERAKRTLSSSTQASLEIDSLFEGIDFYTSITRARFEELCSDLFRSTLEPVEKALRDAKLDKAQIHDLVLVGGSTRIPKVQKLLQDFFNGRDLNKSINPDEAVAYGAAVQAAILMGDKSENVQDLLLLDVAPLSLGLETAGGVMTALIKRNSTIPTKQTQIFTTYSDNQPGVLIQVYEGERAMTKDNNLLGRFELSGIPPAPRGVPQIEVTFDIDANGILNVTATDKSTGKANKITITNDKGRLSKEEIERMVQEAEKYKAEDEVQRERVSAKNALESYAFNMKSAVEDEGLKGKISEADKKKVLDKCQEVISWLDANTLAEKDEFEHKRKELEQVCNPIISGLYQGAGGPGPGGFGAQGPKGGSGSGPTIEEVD
T3 sequence (P0DMV8 whole entry C267S/C306S): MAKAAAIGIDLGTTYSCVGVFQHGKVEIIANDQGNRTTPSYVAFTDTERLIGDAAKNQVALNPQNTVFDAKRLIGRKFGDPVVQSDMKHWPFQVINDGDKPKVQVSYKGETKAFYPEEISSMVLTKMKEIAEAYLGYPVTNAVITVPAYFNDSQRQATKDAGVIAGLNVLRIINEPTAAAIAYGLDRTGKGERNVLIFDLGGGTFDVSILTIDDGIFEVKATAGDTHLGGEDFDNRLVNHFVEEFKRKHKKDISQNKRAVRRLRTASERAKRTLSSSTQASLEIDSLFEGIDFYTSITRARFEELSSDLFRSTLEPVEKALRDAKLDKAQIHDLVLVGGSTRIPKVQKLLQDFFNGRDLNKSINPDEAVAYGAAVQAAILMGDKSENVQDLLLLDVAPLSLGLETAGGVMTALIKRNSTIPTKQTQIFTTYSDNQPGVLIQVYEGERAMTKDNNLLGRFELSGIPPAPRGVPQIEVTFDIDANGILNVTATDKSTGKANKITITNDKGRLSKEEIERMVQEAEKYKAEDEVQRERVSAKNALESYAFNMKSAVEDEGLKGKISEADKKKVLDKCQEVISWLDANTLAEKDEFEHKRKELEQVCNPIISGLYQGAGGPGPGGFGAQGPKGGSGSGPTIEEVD
T2 sequence (P0DMV8 whole entry C267S/C306S): as above

B1: FITC-ALLLSAPRR peptide (peptide)
peptide: {FITC}-ALLLSAPRR
notes: fluorescently labelled model substrate peptide of Hsp70; also called FAR; FAR peptide
binds: all assays above
